This note sets out measurements from PMC10618305, “An intramolecular disulphide bond in human 4E-T affects its binding to eIF4E1a protein” (European Biophysics Journal, 2023).

Bridge positions count the residues as written; N and C are the ends.

Data set [1] deals with human eIF4E1a protein (human) (UniProt P06730). Kind of data set: differential scanning fluorimetry (thermal shift); non-reducing: 50 mM HEPES-KOH pH 7.2, 100 mM KCl, no TCEP; 5 µM eIF4E1a with 0-50 µM h4E-T(1-68) variant incubated without TCEP (up to 48 h, 4 or 20 °C), or SEC-purified dimers at 1:1; SYPRO Orange; shift of the Tm of eIF4E1a. In general terms: Differential scanning fluorimetry follows unfolding on heating by fluorescence.
Sequence of human eIF4E1a protein (human) (P06730 whole entry): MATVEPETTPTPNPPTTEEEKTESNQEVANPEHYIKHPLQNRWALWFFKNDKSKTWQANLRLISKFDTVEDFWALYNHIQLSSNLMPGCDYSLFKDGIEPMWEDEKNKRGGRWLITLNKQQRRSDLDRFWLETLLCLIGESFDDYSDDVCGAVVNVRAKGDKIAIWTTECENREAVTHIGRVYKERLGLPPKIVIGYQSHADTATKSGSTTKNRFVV

Data set [2] has as its target human 4E-T(1-68) wild type, monomer SH (both cysteines reduced) (human) (UniProt Q9NRA8). In words: SEC; non-reducing: monomer fractions incubated 24 h at 20 °C in TCEP-free 50 mM HEPES-KOH pH 7.2 with KCl, Enrich SEC70 column, 20 °C; dimers are held by intermolecular disulphide bonds.
Data set [3] concerns the target T1, human eIF4E1a protein (human, UniProt P06730 1-217).
T1 construct: human eukaryotic translation initiation factor 4E, isoform called eIF4E1a; Extinction coefficient used: 52,940 M^-1 cm^-1; also called heIF4E1a; eukaryotic initiation factor 4E
Kind of data set: ITC; non-reducing: 50 mM HEPES-KOH pH 7.2, 100 mM KCl, no TCEP, 20 °C; 20 µM eIF4E1a in the cell titrated with 200 µM h4E-T(1-68) WT; one-site model. As to conditions: both partners purified. In general terms: In ITC the heat of successive injections is recorded.
T1 sequence (P06730 whole entry, canonical isoform): as the sequence (P06730 whole entry) above

Data set [4] addresses T1, human eIF4E1a protein. In words: differential scanning fluorimetry (thermal shift); non-reducing: 50 mM HEPES-KOH pH 7.2, 100 mM KCl, no TCEP; 5 µM eIF4E1a with 0-50 µM h4E-T(1-68) variant incubated without TCEP (up to 48 h, 4 or 20 °C), or SEC-purified dimers at 1:1; SYPRO Orange; shift of the Tm of eIF4E1a. The note with it: both partners purified.
Data set [5] deals with T1, human eIF4E1a protein. The data set is described as above. As to conditions: both partners purified. The source holds these as a separate data set.
In data set [6] the target is T2, human eIF4E1a protein (human, UniProt P06730 1-217).
T2 construct: eukaryotic translation initiation factor 4E, isoform 1a (eIF4E1a), human; Extinction coefficient used: 52,940 M^-1 cm^-1; also called heIF4E1a; eukaryotic initiation factor 4E
Kind of data set: ITC; eIF4E1a in the cell, titrated with a ten-fold concentrated h4E-T(1-68) variant (for WT: 20 uM eIF4E1a, 200 uM h4E-T); 20 °C; 50 mM HEPES-KOH pH 7.2, 100 mM KCl, without TCEP (non-reducing); one-site model. The note with it: both partners purified.
T2 sequence (P06730 whole entry, canonical isoform): as the sequence (P06730 whole entry) above

The target in data set [7] is T2, human eIF4E1a protein. Kind of data set: ITC; eIF4E1a (5 or 10 uM) in the cell, titrated with a ten-fold concentrated h4E-T(1-68) variant; 20 °C; 50 mM HEPES-KOH pH 7.2, 100 mM KCl, with 1 mM TCEP (reducing); one-site model. The note with it: both partners purified.
For data set [8], the target named is T1, human eIF4E1a protein. Kind of data set: differential scanning fluorimetry (thermal shift); reducing: 50 mM HEPES-KOH pH 7.2, 100 mM KCl, 1 mM TCEP; 5 µM eIF4E1a with 0-50 µM h4E-T(1-68) variant; SYPRO Orange; shift of the Tm of eIF4E1a. The note with it: both partners purified.
Data set [9] deals with T1, human eIF4E1a protein. In words: ITC; reducing: 50 mM HEPES-KOH pH 7.2, 100 mM KCl, 1 mM TCEP, 20 °C; 5 or 10 µM eIF4E1a in the cell titrated with ten-fold concentrated h4E-T(1-68) variant; one-site model. As to conditions: both partners purified.
The target of data set [10] is T1, human eIF4E1a protein. In words: differential scanning fluorimetry (thermal shift); reducing: 50 mM HEPES-KOH pH 7.2, 100 mM KCl, 1 mM TCEP; 5 µM eIF4E1a with 0-50 µM h4E-T(1-68) variant; SYPRO Orange; shift of the Tm of eIF4E1a. As to conditions: both partners purified. The source holds these as a separate data set.
Data set [11] concerns the molecule itself. In words: SEC; non-reducing: monomer fractions incubated 24 h at 20 °C in TCEP-free 50 mM HEPES-KOH pH 7.2 with KCl, Enrich SEC70 column, 20 °C; dimers are held by intermolecular disulphide bonds. On the technique in general: SEC sorts molecules by how far they enter the pores of the column.

For “dimeric form of human 4E-T(1-68) C50A (intermolecular disulphide bond) (from UniProt Q9NRA8 1-68) (complex)”, in data set [1], the fold lower ΔTm than the corresponding monomer was 2 fold; the ΔTm lower than that of the monomer-dimer mixture turned out to be 2.5 °C; the ΔΔTm against the monomer SS of WT h4E-T(1-68), 1:1 mixture came out at 7 °C.
The stoichiometry N is the number of molecules, sites or subunits per partner or assembly. For the molecule “human 4E-T(1-68) wild type, monomer SH (both cysteines reduced) (from UniProt Q9NRA8 1-68) (domain or fragment)”, in data set [2], the percent in the dimeric form amounted to 10% and the stoichiometry N turned out to be 2.
For the molecule “dimeric form of human 4E-T(1-68) C26A (intermolecular disulphide bond) (from UniProt Q9NRA8 1-68) (complex)”, in data set [1], the fold lower ΔTm than the corresponding monomer was found to be 2 fold; the ΔTm lower than that of the monomer-dimer mixture worked out at 2.5 °C; the ΔΔTm against the monomer SS of WT h4E-T(1-68), 1:1 mixture worked out at 5.5 °C.

B1: human 4E-T(1-68) wild type with the intramolecular disulphide bond Cys26-Cys50 (monomer SS) (domain or fragment, UniProt Q9NRA8 1-68, looked up)
chain: MDRRSMGETESGDAFLDLKKPPASKCPHRYTKEELLDIKELPHSKQRPSCLSEKYDSDGVWDPEKWHA
modifications: disulfide 26-50
notes: human 4E-Transporter (4E-T), N-terminal fragment, residues 1-68; Same construct as m2, oxidised; The samples without TCEP may still hold some monomer SH and a small fraction of dimer; also called h4E-T(1-68) WT under non-reducing conditions; disulphide loop form
One may read the Kd as a measure of binding affinity in units of concentration. High values mean lower affinity, low ones higher affinity. Consider B1, for which the Kd with human eIF4E1a protein [3] came out at 800 ± 96 nM. For the same molecule, in the data set with human eIF4E1a protein [4], the “ΔTm of eIF4E at eIF4E:h4E-T(1-68) 1:1” value stood at 1 ± 0.5 °C and the “ΔTm of eIF4E at eIF4E:h4E-T(1-68) 1:10” value is 9.5 ± 0.5 °C. Besides, in the data set with human eIF4E1a protein [5], the “Tm of eIF4E in the 1:1 mixture (melting peak after 3 h at 20 °C without TCEP)” value amounted to 41.5 ± 0.5 °C.

B2: human 4E-T(1-68) wild type under non-reducing conditions (monomer SS, intramolecular disulphide bond) (domain or fragment, UniProt Q9NRA8 1-68, looked up)
chain: MDRRSMGETESGDAFLDLKKPPASKCPHRYTKEELLDIKELPHSKQRPSCLSEKYDSDGVWDPEKWHA
modifications: disulfide 26-50
notes: 4E-Transporter (4E-T), human, residues 1-68; Same construct as Wm2, in TCEP-free buffer; also called h4E-T(1-68) WT without TCEP; disulphide loop form
In the data set with human eIF4E1a protein [6], B2 yielded a Ka of 1.25e+06 ± 150000 M⁻¹.

B3: human 4E-T(1-68) wild type, reduced (monomer SH) (domain or fragment, UniProt Q9NRA8 1-68, looked up)
chain: MDRRSMGETESGDAFLDLKKPPASKCPHRYTKEELLDIKELPHSKQRPSCLSEKYDSDGVWDPEKWHA
notes: 4E-Transporter (4E-T), human, residues 1-68; The His6-tag is cleavable by thrombin, but no cleavage is described; Kept in 1 mM TCEP, with both cysteines reduced; also called h4E-T(1-68) WT; h4ET(1-68)
In the data set with human eIF4E1a protein [7], B3 came in with a Ka of 3.73e+08 ± 6.8e+07 M⁻¹.

B4: human 4E-T(1-68) wild type, monomer SH (both cysteines reduced) (domain or fragment, UniProt Q9NRA8 1-68, looked up)
chain: MDRRSMGETESGDAFLDLKKPPASKCPHRYTKEELLDIKELPHSKQRPSCLSEKYDSDGVWDPEKWHA
notes: pET28a construct, His6-tag cleavable by thrombin; also called h4E-T(1-68) WT; h4ET(1-68)
With B4, in the data set with human eIF4E1a protein [8], the “ΔTm of eIF4E at eIF4E:h4E-T(1-68) 1:1” value is 12 ± 0.5 °C and the “ΔTm of eIF4E at eIF4E:h4E-T(1-68) 1:10” value worked out at 15.5 ± 0.5 °C. Moreover, in the data set with human eIF4E1a protein [9], binding was characterised by a dissociation constant (Kd) of 2.7 ± 0.5 nM. In addition, the “Tm of eIF4E in the 1:1 mixture (melting peak after 3 h at 20 °C without TCEP)” value with human eIF4E1a protein [5] was determined as 51.5 ± 0.5 °C. Further, in the data set with human eIF4E1a protein [10], the “Tm of eIF4E in the 1:1 mixture (zero time)” value was determined as 52.5 ± 0.5 °C.

B5: human 4E-T(1-68) C26AC50A (domain or fragment, UniProt Q9NRA8 1-68, looked up)
chain: MDRRSMGETESGDAFLDLKKPPASKAPHRYTKEELLDIKELPHSKQRPSALSEKYDSDGVWDPEKWHA
notes: human 4E-Transporter (4E-T), N-terminal fragment, residues 1-68; also called double cysteine mutant
In turn, B5 displayed a Kd in the data set with human eIF4E1a protein [9] of 3.1 ± 0.2 nM. Further, in the data set with human eIF4E1a protein [4], the “ΔTm of eIF4E at eIF4E:h4E-T(1-68) 1:1” value came to 10.5 ± 0.5 °C and the “ΔTm of eIF4E at eIF4E:h4E-T(1-68) 1:10” value was 14.5 ± 0.5 °C.

B6: human 4E-T(1-68) C26A (domain or fragment, UniProt Q9NRA8 1-68, looked up)
chain: MDRRSMGETESGDAFLDLKKPPASKAPHRYTKEELLDIKELPHSKQRPSCLSEKYDSDGVWDPEKWHA
notes: human 4E-Transporter (4E-T), N-terminal fragment, residues 1-68; Without TCEP the samples are a mixture of monomer and disulphide-linked dimer; also called C26A mutant; C26 mutant
Take B6: in the data set with human eIF4E1a protein [8], the “ΔTm of eIF4E at eIF4E:h4E-T(1-68) 1:1” value came out at 12 ± 0.5 °C and the “ΔTm of eIF4E at eIF4E:h4E-T(1-68) 1:10” value stood at 15.5 ± 0.5 °C. In the data set with human eIF4E1a protein [9], this molecule had a Kd of 1.5 ± 0.5 nM. In the data set with human eIF4E1a protein [4], the “ΔTm of eIF4E at eIF4E:h4E-T(1-68) 1:1” value stood at 9 ± 0.5 °C and the “ΔTm of eIF4E at eIF4E:h4E-T(1-68) 1:10” value turned out to be 12.5 ± 0.5 °C. The “stoichiometry N” value in data set [11] was determined as 2.

B7: human 4E-T(1-68) C50A (domain or fragment, UniProt Q9NRA8 1-68, looked up)
chain: MDRRSMGETESGDAFLDLKKPPASKCPHRYTKEELLDIKELPHSKQRPSALSEKYDSDGVWDPEKWHA
notes: human 4E-Transporter (4E-T), N-terminal fragment, residues 1-68; Without TCEP the samples are a mixture of monomer and disulphide-linked dimer; also called C50A mutant
For the molecule B7, the entries for the “ΔTm of eIF4E at eIF4E:h4E-T(1-68) 1:1” value with human eIF4E1a protein [8], with human eIF4E1a protein [4] and with human eIF4E1a protein [10] were 11.5 ± 0.5 °C, 10.5 ± 0.5 °C and 12 ± 0.5 °C, respectively. For the same molecule, the “ΔTm of eIF4E at eIF4E:h4E-T(1-68) 1:10” value was determined as 15.5 ± 0.5 °C with human eIF4E1a protein [8] and 14.5 ± 0.5 °C with human eIF4E1a protein [4]. Besides, in [11], the “stoichiometry N” value stood at 2.

B8: human 4E-T(1-68) C26AC50A (domain or fragment, UniProt Q9NRA8 1-68, looked up)
chain: MDRRSMGETESGDAFLDLKKPPASKAPHRYTKEELLDIKELPHSKQRPSALSEKYDSDGVWDPEKWHA
notes: 4E-Transporter (4E-T), human, residues 1-68, with C26A and C50A; This mutant cannot form any disulphide bond; also called h4E-T(1-68)C26AC50A; double cysteine mutant
In the case of B8, in the data set with human eIF4E1a protein [6], the Ka came out at 3.27e+08 ± 2.2e+07 M⁻¹.

B9: human 4E-T(1-68) C26A (domain or fragment, UniProt Q9NRA8 1-68, looked up)
chain: MDRRSMGETESGDAFLDLKKPPASKAPHRYTKEELLDIKELPHSKQRPSCLSEKYDSDGVWDPEKWHA
notes: 4E-Transporter (4E-T), human, residues 1-68, with C26A; also called h4E-T(1-68)C26A; C26A mutant
Consider B9, for which the Ka with human eIF4E1a protein [6] is about 1e+08 M⁻¹; in the data set with human eIF4E1a protein [7], 6.64e+08 ± 8.4e+07 M⁻¹.
